The text below walks through data of patent publication US6384302.

What all share (assay): cell-based or functional assay
One test has as its target bovine trypsin (bovine) (UniProt P00760).
Test [1] has as its target Helicoverpa zea (H. zea) midgut trypsin (Helicoverpa zea).
Test [2] has as its target trypsin (source not stated).

In the test with bovine trypsin (bovine), “Affinity purified P. macroloba trypsin inhibitor (PmTI)” gave an IA = Inhibitory Activity in IUs (BAPNA hydrolysis) of 4.96 IU and an SA = Specific Activity in IU/mg protein (IU/mg protein) of 2.48. Further, in test [1], the IA = Inhibitory Activity in IUs (BAPNA hydrolysis) turned out to be 7.46 IU and the SA = Specific Activity in IU/mg protein (IU/mg protein) is 3.73.

For “Bowman-Birk trypsin inhibitor (soybean) (from UniProt P01055 40-110)”, the SA = Specific Activity in IU/mg protein (IU/mg protein) came out at 5.03 with bovine trypsin (bovine) and 2.1 in test [1].

In the test with bovine trypsin (bovine), Crude P. macroloba seed extract displayed an IA = Inhibitory Activity in IUs (BAPNA hydrolysis) of 0.119 IU and an SA = Specific Activity in IU/mg protein (IU/mg protein) of 0.038. Besides, in test [1], the IA = Inhibitory Activity in IUs (BAPNA hydrolysis) was 0.245 IU and the SA = Specific Activity in IU/mg protein (IU/mg protein) amounted to 0.079. In test [2], this substance displayed an inhibition activity after heating at 70° C. for 5 minutes of 3.7 IU/mg TI and an inhibition activity before heating of 2.2 IU/mg TI.

As to “Kunitz trypsin inhibitor (soybean) (from UniProt P01070 25-205)”, the SA = Specific Activity in IU/mg protein (IU/mg protein) with bovine trypsin (bovine) was 1.02; in test [1], 0.845.

Consider “P. macroloba large trypsin inhibitor (PmLTI)”, for which, in the test with bovine trypsin (bovine), the IA = Inhibitory Activity in IUs (BAPNA hydrolysis) is 5.57 IU and the SA = Specific Activity in IU/mg protein (IU/mg protein) is 2.78. In addition, in test [1], the IA = Inhibitory Activity in IUs (BAPNA hydrolysis) was determined as 7.86 IU and the SA = Specific Activity in IU/mg protein (IU/mg protein) is 3.93.

Regarding “P. macroloba small trypsin inhibitor (PmSTI)”, the IA = Inhibitory Activity in IUs (BAPNA hydrolysis) in the test with bovine trypsin (bovine) was determined as 30.6 IU; in test [1] it was 8.54 IU. Besides, the SA = Specific Activity in IU/mg protein (IU/mg protein) came to 50.9 with bovine trypsin (bovine) and 14.2 in test [1].
